Results on one molecule are retold here after patent publication US20210322404A1, “FGFR REGULATION FOR THE TREATMENT OF VIRAL INFECTIONS” (ETH ZURICH, priority 2016, published 2021).

Assay [1] has as its system HSV-1. Briefly: Ex vivo HSV-1 infection of epidermal sheets from mouse tail skin. The format is cell-based, Herpes Simplex Virus type 1. The following applies: HSV-1 MOI=2, 48 h, FGF7 15 ng/ml, NSC23766 50 μM, AZD4547 1 μM. The method, then:
FIG. 7D pertains to epidermal sheets from tail skin of wild-type mice that were infected ex vivo with HSV-1 (MOI=2) in the presence or absence of IFNα, FGF7, NSC23766 or AZD4547 and analyzed by immunofluorescence staining 48 h after infection with antibodies against Glyc-D (red). […] Cell nuclei were stained using DAPI (blue). Magnification bar: 800 μm. Values obtained for HSV-1 infected cells in (A-C) without additional treatment were set to 1.
HSV-1 infection of epidermal sheets from mouse tails was performed as previously described (Rahn et al., J. Invest. Dermatol 135, 3009-3016, 2015). Briefly, skin was removed from the tails of 3 month-old mice, followed by separation of the epidermis from the dermis by dispase treatment (5 mg/ml). After floating the epidermal sheets on serum-free DMEM overnight, they were incubated with HSV-1 alone (MOI=2) or in combination with FGF7 (15 ng/ml), IFNα (1000 U/ml) and/or NSC23766 (50 μM) or AZD4547 (1 μM) for 48 h and subsequently fixed in 4% PFA for 1 h at RT. The sheets were then incubated in blocking solution (PBS 2% BSA/1% fish skin gelatin/0.05% Triton Tx-100) for 2 h at RT and stained overnight at 4° C. with an antibody against Glyc-D diluted in blocking solution. […]

Assay [2] is described as follows: Active RAC1 detection after FGF7 treatment. The format is cell-based, human. The following applies: HaCaT cells, FGF7 10 ng/ml, 10 min. As for the experimental part:
FIG. 4D pertains to mouse primary keratinocytes (left panel) or HaCaT cells (right panel), which had been treated with FGF7 (10 ng/ml) or vehicle for 10 min and analyzed for active RAC1 using the Active RAC1 detection kit (Cell Signaling). Activation of FGFR signaling under these conditions was verified by phosphorylation of ERK1/2 (p42/44).

In assay [3] the test system is HSV-1. Kind of assay: HSV-1 infection of human primary foreskin keratinocytes. The following applies: HSV-1 MOI=0.5, 24 h.
The subject of assay [4] is interferon-stimulated response element (ISRE). Briefly: ISRE luciferase reporter assay in immortalized mouse keratinocytes. It counts as cell-based. The following applies: FGF7 10 ng/ml and/or IFNα 1000 U/ml, 12 h. As for the experimental part: FIG. 3C pertains to immortalized mouse keratinocytes that were co-transfected with TK-Renilla and pGL4.45[luc2P/ISRE/Hygro] plasmids, starved in serum-free medium and then treated with FGF7 (10 ng/ml) and/or IFNα (1000 U/ml) for 12 h. Firefly luciferase activity was determined in cell lysates and normalized to Renilla luciferase activity (transfection control). The mean value in vehicle-treated cells (CTRL) was set to 1.
Mouse keratinocytes and HEK 293 cells were transfected with the expression vector for TK-Renilla and the expression vector pGL4.45[luc2P/ISRE/Hygro] (Promega). The latter contains five copies of an ISRE that drives expression of the luciferase reporter gene. Cells were seeded into 12-well plates, cultured for 24 h, and transfected using Lipofectamine 2000 […]. They were then starved in serum-free medium, treated with FGF7 (10 ng/ml) and/or IFNα (1000 U/ml) for 12 h, lysed and analyzed using a dual-luciferase assay system (Promega) as described by the manufacturer. Relative light units were measured in a GloMax 96 microplate luminometer with dual injectors (Promega).
Background: A reporter such as luciferase makes a cellular process visible.

The test system of the next assay is ISGs. The following applies: cultured lung airway epithelial cells, Prince et al.; cited from earlier work.
In assay [5] the test system is interferon-stimulated genes (ISGs). Briefly: ISG expression in human keratinocytes (HaCaT, primary foreskin) treated with FGF7, FGF10 and/or IFNα (qRT-PCR). It counts as cell-based. The conditions noted are these: human primary foreskin keratinocytes and HaCaT, FGF7 10 ng/ml and IFNα 500 U/ml, 16 h. As for the experimental part: FIG. 2F relates to serum-starved immortalized human keratinocytes (HaCaT cell line) that were treated for 6 h with FGF7, FGF10 (both 10 ng/ml) or vehicle (CTRL). RNA was analyzed by qRT-PCR for the expression of the indicated ISGs relative to RPLP0. Mean expression levels in CTRL cells were set to 1. Representative data from three experiments are shown. Scatter plot and mean values are shown in (A-D). Each dot represents a biological replicate.
FIGS. 3E and F pertain to confluent human primary foreskin keratinocytes and (E) or HaCaT cells (F) that were serum-starved for 24 h and treated with FGF7 (10 ng/ml) and/or IFNα (500 U/ml) for 16 h. Cells were analyzed for ISG mRNA levels by qRT-PCR relative to RPLP0. Mean expression levels in vehicle-treated (CTRL) cells were set to 1.
The human HaCaT keratinocyte cell line was cultured in DMEM (Sigma) supplemented with 10% FCS (Thermo Fisher). […]
Total RNA from isolated epidermis of mice or from total skin was purified with Trizol, followed by additional purification with the RNeasy Mini Kit, including on-column DNase treatment (Qiagen, Hilden, Germany). […] Relative gene expression was determined using the Roche LightCycler 480 SYBR Green system (Roche, Rotkreuz, Switzerland).
Background: In qPCR the cycle at which signal appears reflects the starting amount.

Another assay has as its system LCMV. It counts as cell-based, Lymphocytic Choriomeningitis Virus. The following applies: HaCaT, LCMV MOI 0.05 or 0.2.

“Also recorded” adds a separate entry of the source.

B1: FGF7: recombinant human FGF7, the classical ligand of FGFR2b (protein, UniProt P21781 32-194, looked up)
Fibroblast growth factor 7: CNDMTPEQMATNVNCSSPERHTRSYDYMEGGDIRVRRLFCRTQWYLRIDKRGKVKGTQEMKNNYNIMEIRTVAVGIVAIKGVESEFYLAMNKEGKLYAKKECNEDCNFKELILENHYNTYASAKWTHNGGEMFVALNQKGIPVRGKKTKKEQKTAHFLPMAIT
As for B1, the “HSV-1 infection / viral dissemination (Glyc-D staining)” value in the assay with HSV-1 [1] was “stronger; also recorded: A strong increase in infected cells”. Also, the “active RAC1” value in assay [2] was “activated RAC1”. The “effect on HSV-1 infection (Glyc-B qPCR)” value with HSV-1 [3] is “confirmed”. In addition, the ISRE-driven luciferase activity entry in assay [4] is reported as “counteracted”. The “expression of ISGs” value with ISGs is given as “suppresses the expression of a limited number of ISGs”. Besides, in assay [5], the “increase in ISG expression in response to IFNα” value is given as “reduced”. Besides, the “expression levels of LCMV nucleoprotein (NP) / viral replication” value in the assay with LCMV was “strongly increased”.
